The target in assay [1] is MacMCM, minichromosome maintenance protein from Mancarchaeum acidiphilum (Mancarchaeum acidiphilum). Kind of assay: SEC.
Assay [2] has as its target MacMCM^E391Q, Walker B mutant of MacMCM (Mancarchaeum acidiphilum). Briefly: SEC.
The target of assay [3] is MacMCM^ΔWHD.E391Q, MacMCM without the winged helix domain and with the Walker B mutation E391Q (Mancarchaeum acidiphilum). Kind of assay: crystal structure.
For assay [4] the target is unchanged. Briefly: SEC.

Experimental findings from doi:10.1101/2023.08.11.552962 are described below.

Regarding “MacMCM, minichromosome maintenance protein from Mancarchaeum acidiphilum (enzyme)”, the stoichiometry N in assay [1] came to 6.

Substance “MacMCM^E391Q, Walker B mutant of MacMCM (enzyme)” displayed a stoichiometry N in assay [2] of 6. Take “MacMCM^ΔWHD.E391Q, MacMCM without the winged helix domain and with the Walker B mutation E391Q (domain or fragment)”: the stoichiometry N in assay [3] and in assay [4] was 6 in each case.
